Experiment [1] deals with T1, ANGPTL3蛋白(10770-H08B，义翘神州) (UniProt Q9Y5C1 17-460).
T1 construct: Bought protein; also called 血管生成素样蛋白3; 抗原ANGPTL3
T1 sequence (looked up): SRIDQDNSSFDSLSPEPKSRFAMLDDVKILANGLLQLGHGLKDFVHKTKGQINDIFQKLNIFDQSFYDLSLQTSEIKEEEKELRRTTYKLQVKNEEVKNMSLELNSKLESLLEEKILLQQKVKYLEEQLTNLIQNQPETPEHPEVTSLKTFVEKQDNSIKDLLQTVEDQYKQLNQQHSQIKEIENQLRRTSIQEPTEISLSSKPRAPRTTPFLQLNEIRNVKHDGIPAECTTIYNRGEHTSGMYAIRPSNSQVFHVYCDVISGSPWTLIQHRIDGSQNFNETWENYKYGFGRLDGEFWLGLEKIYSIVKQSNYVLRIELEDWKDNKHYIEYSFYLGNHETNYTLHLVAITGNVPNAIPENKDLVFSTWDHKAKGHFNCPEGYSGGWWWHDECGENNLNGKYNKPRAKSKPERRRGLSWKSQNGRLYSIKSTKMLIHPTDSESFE
In words: SPR, BIAcore 8K, antibody captured by anti-human IgG Fc on CM5, ANGPTL3 as analyte, 1:1 model. On the technique in general: Surface plasmon resonance follows binding to a sensor surface in real time, without labels.

For experiment [2], the target named is T1, ANGPTL3蛋白(10770-H08B，义翘神州). Description: cell-based or functional assay.
Experiment [3] has as its target T1, ANGPTL3蛋白(10770-H08B，义翘神州). Description: ELISA, ANGPTL3 coated at graded concentrations (0.2-0 μg/mL), antibody 1 μg/mL, OD450.

What is called Kd is the constant that tells how readily two partners part at equilibrium. A word on the koff: it is the rate constant with which the complex falls apart. The kon is the rate constant with which the complex forms. A low value points to slower complex formation. Usually EC50 stands for the concentration needed to bring the measured effect to its halfway point. The low end stands for higher potency in that assay, the high end for lower potency in that assay.

B1: AP-REGN-IgG4 (antibody, V domains shown)
VH: EVQLVESGGGVIQPGGSLRLSCAASGFTFDDYAMNWVRQGPGKGLEWVSAISGDGGSTYYADSVKGRFTISRDNSKNSLYLQMNSLRAEDTAFFYCAKDLRNTIFGVVIPDAFDIWGQGTMVTVSS
VL: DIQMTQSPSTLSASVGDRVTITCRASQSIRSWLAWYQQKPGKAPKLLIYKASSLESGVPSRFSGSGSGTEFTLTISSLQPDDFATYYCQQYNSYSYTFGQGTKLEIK
notes: IgG4 by its name; also called Evinacumab; evinacumab
Regarding B1, in experiment [1], binding was put at a Kd of 0.452 nM, the koff is 0.000275 s⁻¹ and the kon is 609000 M⁻¹ s⁻¹. Further, the “酶活检测EC50 (LPL, DGGR底物, 荧光值)” value in experiment [2] turned out to be 95.1 µg/mL. Also, the response in experiment [3] was half-maximal at 0.162 µg/mL (EC50).

Source of the values: patent publication CN112062844A (SHANDONG BOAN BIOTECHNOLOGY CO LTD, dated 2020).
